# Experimental data published in the supplement of paper PMC9170038.
# Tested on: MS2 coat protein
# Test: apparent KD of MS2 coat protein; higher = weaker reporter binding
# Settings: Eterna round: R107
# How it was run: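 Illumina sequencing clusters were used for on-chip transcription of designed RNA switches. Titration with SNAP-549-labelled MS2 coat protein followed, in twofold steps from 0.7 or 1.5 nM to 3 µM in 100 mM Tris-HCl pH 7.5, 80 mM KCl, 4 mM MgCl2, without or with constant ligand. Apparent KD is each design's median of fits to normalised cluster binding curves.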
# [1] = input ligand: theophylline 20 uM
# [2] = input ligand: tryptophan 2.4 mM
# [3] = input ligand: theophylline 2 mM
Sequence,apparent KD of MS2 coat protein (input ligand: arginine 13.2 mM) [nM],apparent KD of MS2 coat protein [1] [nM],apparent KD of MS2 coat protein [2] [nM],apparent KD of MS2 coat protein [3] [nM],apparent KD of MS2 coat protein (input ligand: none) [nM]
UUAGAUAUGACGGAUACCAGCGUGUUGUAGAACAUGAGGAUCACCCAUGUAGUGAUCGAGCGCCCUUGGCAGCUGGUAUGUUUGG [7.T],175,203,335,,
UUAUAAGUACCGGUCCUCAGAUCCUCAUGACGAGGACCGGUACGGCCGCCACUCGAAACAUGAGGAUCACCCAUGUAAUAAUACU [Brourdmod08],21,34.5,,33.1,
UUAUGAUGUUCCGAUACCAGCCAUGUGGUUCUAACUUAACAUGAGGAUCACCCAUGUACCGGCCCUUGGCAGCGGAUGUGGAUUA [Flamini],12,14.8,12.6,,
UUCAGCUAGUCGGCCGCCACUACUUGAGGAUCACCCAGGUAGGUCCACACUGCUUCGGCAGUGAGUAGGACCGGGACUAGCUGAG,31,32.2,272,39.4,32.8
UUCGUUUACGGAAGGAGCGACGGACAUCGGUGAACGACGCACAUGAGGAUCACCCAUGUACGUCAGGUAGGUCGCCGUUAAGAGU [Somama],23,27.7,19.2,19.6,17.4
UUCGUUUGCGGAAGGAGCGACGGACAUCGGUGAACGACGCACAUGAGGAUCACCCAUGUACGUCAGGUAGGUCGCCGCUAAGAGU [Tibira],15.5,22.3,19.8,25.2,18
UUCUUUAAGUCGGCCGCCACUGAAACAUGAGGAUCACCCAUGUAAAUUUGGGAGUAGUUAUAUUACAGGACCGGGACUAUAGUAA [JR_ExcTryptoB_Sub020],34.8,48.8,,51,
UUCUUUAAGUCGGCCGCCACUGAAACAUGAGGAUCACCCAUGUAUAUUUGUGUAUAGGUGGAUUACAGGACCGGGACUAUAGUAA [JR_ExcTryptoB_Sub023],15.1,20.2,14.7,15.2,14.7
UUGAACAUGAGGAUCACCCAUGUGGAUGAUACCAGCUAAAACAUAAGCCCUUGGCAGCAUUAAAAUGAAAUAUCGAAAAGGAAAG [theeternabot_sameState_MS2_Theo_A_1],95.1,179,127,,
UUGGCAGCAUGGGUGGCUGCCAAGGCUGAUACCAGCCACGAAAGUGGCCCUUGGCAGCAGCAAACAUGAGGAUCACCCAUGUUAA [(T)''-(M)'-(T)'-(Theo)-(Ms2)_Design3],87.2,105,93.3,104,86.3
UUUAGUAUCUUAGAUACCAGUUUUGGGUGCUGAACGUCUCACAUGAGGAUCACCCAUGUAAACCCUUGGCAGCUACAUACGUAAA [theeternabot_exclusion_MS2_Theo_B_41],35.7,58.9,51.9,,
UUUUUCGCGGGUGAUACCAGCAGAGUUGUACUGGUCUGGUACAUGAGGAUCACCCAUGUUUGCCCUUGGCAGCGCUCGGGAGAAG [#23 Exclusion-TheophyllineB],29.3,32.1,24.1,44.4,19.8
UUUUUCGUAGGUUAUAGUUUAGAAACUGAAGGAGCGUGGUAAUACACAGGUAGGUCGCAGAUUUUACAUGAGGAUCACCCAUGUU [JR_ExcArginiA_Sub013],23.5,27.6,22.7,25.1,24.1
